{"source": "patent US20240013853A1", "about": "(University of Washington, published 2024)", "proteins": {"B1": {"name": "HALC3_109 (other)", "chain": "REEIEEAVKEAELKVLAIVLVALRSVSHYEPLSRLYESFLDALKKALSEEELKEVEKEAERIEKK", "notes": "De novo designed protomer; pair is protomer with identical protomer (C3 homo-trimer)"}, "B2": {"name": "HALC6_220 (other)", "chain": "PPIPPPSFKLEISPAFLELVQLVIDLHPNDEEVRKELIENLISRIGKSDNVPPETISLDISEAALELFEWIFEKFPDDEDVHRRLIESFINKRKFSSSSPLDTPSLDISERFIELVKYILEKYPEDEEIKQKLIDSLLNLLGSY", "notes": "De novo designed protomer; pair is protomer with identical protomer (C6 homo-hexamer); not shown: C-terminal His tag"}, "B3": {"name": "HALC2_068 (other)", "chain": "MIKVPEDLERIGRELRARGLDTKRLLEEGPKLYPELSIPDLMAIALYDHLNLDPEFLYRLLQQSR", "notes": "De novo designed protomer; pair is protomer with identical protomer (C2 homo-dimer)"}, "B4": {"name": "HALC4_135 (other)", "chain": "MEKFKEQLLEEVKKIVLETMTKVMEHLEKWFVTLAEIIITKSEEKLEELKETMEKSIEELRKEAE", "notes": "De novo designed protomer; pair is protomer with identical protomer (C4 homo-tetramer)"}, "B5": {"name": "HALC3_104 (other)", "chain": "KRIDEIESKLKHLEEFTTHLIKLMETMLELLKLVSDGKSDSEEYKELLEKAEEYLKQATEAAKKI", "notes": "as for B1"}, "B6": {"name": "HALC24-6_316 (other)", "chain": "SKEKLGIQQDLFEGIIATLLSHKDPRVLYLMVTILKLTGSSPSKEKLGIQQDLFEGIIATLLSHKDPRVLYLMVTILKLTGSSPSKEKLGIQQDLFEGIIATLLSHKDPRVLYLMVTILKLTGSSPSKEKLGIQQDLFEGIIATLLSHKDPRVLYLMVTILKLTGSSP", "notes": "De novo designed protomer; pair is protomer with identical protomer (C24 internal symmetry, homo-hexamer); not shown: C-terminal His tag"}, "B7": {"name": "HALC25-5_341 (other)", "chain": "EGAAIAENLATAYQGIGETLPSLQDLRVLHLSVIFSAEGSSPEGAAIAENLATAYQGIGETLPSLQDLRVLHLSVIFSAEGSSPEGAAIAENLATAYQGIGETLPSLQDLRVLHLSVIFSAEGSSPEGAAIAENLATAYQGIGETLPSLQDLRVLHLSVIFSAEGSSPEGAAIAENLATAYQGIGETLPSLQDLRVLHLSVIFSAEGSSP", "notes": "De novo designed protomer; pair is protomer with identical protomer (C25 internal symmetry, homo-pentamer); not shown: C-terminal His tag"}, "B8": {"name": "HALC20-5_308 (other)", "chain": "SLGWKVLLHLDLTWYPGADYTIDHDDMTRAARALAHGFERAAHSFAEAIGSTGSLGWKVLLHLDLTWYPGADYTIDHDDMTRAARALAHGFERAAHSFAEAIGSTGSLGWKVLLHLDLTWYPGADYTIDHDDMTRAARALAHGFERAAHSFAEAIGSTGSLGWKVLLHLDLTWYPGADYTIDHDDMTRAARALAHGFERAAHSFAEAIGSTG", "notes": "De novo designed protomer; pair is protomer with identical protomer (C20 internal symmetry, homo-pentamer); not shown: C-terminal His tag"}, "B9": {"name": "HALC42-7_351 (other)", "chain": "PSLTLNDFGDLGKGLGEGLQGMENLEKLQLTITLKLTVSTPSLTLNDFGDLGKGLGEGLQGMENLEKLQLTITLKLTVSTPSLTLNDFGDLGKGLGEGLQGMENLEKLQLTITLKLTVSTPSLTLNDFGDLGKGLGEGLQGMENLEKLQLTITLKLTVSTPSLTLNDFGDLGKGLGEGLQGMENLEKLQLTITLKLTVSTPSLTLNDFGDLGKGLGEGLQGMENLEKLQLTITLKLTVST", "notes": "De novo designed protomer; pair is protomer with identical protomer (C42 internal symmetry, homo-heptamer); not shown: C-terminal His tag"}, "B10": {"name": "HALC2_062 (other)", "chain": "MARVEYSYEKLNDTHYKLKLKVTYEYRKSPEARRLAEDLVQAFVDALSSLPFITVEYEVEEVEVE", "notes": "De novo designed protomer; the entry is one protomer and the pair is protomer with identical protomer (C2 homo-dimer)"}, "B11": {"name": "HALC33-3_343 (other)", "chain": "PSNWPEVAKYFDLGKALKPIGEGLQNLKNLKHLDLSFSFSLELYPGLPSNWPEVAKYFDLGKALKPIGEGLQNLKNLKHLDLSFSFSLELYPGLPSNWPEVAKYFDLGKALKPIGEGLQNLKNLKHLDLSFSFSLELYPGLPSNWPEVAKYFDLGKALKPIGEGLQNLKNLKHLDLSFSFSLELYPGLPSNWPEVAKYFDLGKALKPIGEGLQNLKNLKHLDLSFSFSLELYPGLPSNWPEVAKYFDLGKALKPIGEGLQNLKNLKHLDLSFSFSLELYPGLPSNWPEVAKYFDLGKALKPIGEGLQNLKNLKHLDLSFSFSLELYPGLPSNWPEVAKYFDLGKALKPIGEGLQNLKNLKHLDLSFSFSLELYPGLPSNWPEVAKYFDLGKALKPIGEGLQNLKNLKHLDLSFSFSLELYPGLPSNWPEVAKYFDLGKALKPIGEGLQNLKNLKHLDLSFSFSLELYPGLPSNWPEVAKYFDLGKALKPIGEGLQNLKNLKHLDLSFSFSLELYPGL", "notes": "De novo designed protomer; pair is protomer with identical protomer (C33 internal symmetry, homo-trimer); not shown: C-terminal His tag"}, "B12": {"name": "HALC15-5_262 (other)", "chain": "DVPLTDPKNLNEFLYALGEGLKGMKNLKKLTLTFPSNPLTIPGDISEGFRELGEGLKGMKNLEELTVTFNDVPLTDPKNLNEFLYALGEGLKGMKNLKKLTLTFPSNPLTIPGDISEGFRELGEGLKGMKNLEELTVTFNDVPLTDPKNLNEFLYALGEGLKGMKNLKKLTLTFPSNPLTIPGDISEGFRELGEGLKGMKNLEELTVTFN", "notes": "De novo designed protomer; pair is protomer with identical protomer (C15 internal symmetry, homo-pentamer); also called HALC5-15_262; HALC5-15 262; not shown: C-terminal His tag"}}, "key": {"[1]": {"target": "the molecule itself", "test": "X-ray crystal structure; self-association of protomers", "description": "(§1) 19 designs were chosen to undergo crystallization screens. Each design was expressed as described above in 0.5 L cultures. […] Following SEC, 2 mM of NiCl₂ was added and the solution was incubated overnight at 37° C. Following cleavage, the solutions containing the cleaved protein products were incubated with 1 mL Ni-NTA resin to bind any uncleaved product, and the flow through was collected. Following SEC into Crystallization buffer (20 mM Tris, 50 mM NaCl, pH 8.0), each sample was concentrated to approximately 15 mg mL⁻¹. The following sitting drop broad screens were set up at room temperature with three protein:crystallization condition ratios (1:1, 1:2, 2:1) using the mosquito pipetting instrument (sptlabtech): Midas™ (Molecular Dimensions), Proplex™ (Molecular Dimensions), JCSG+™ (Molecular Dimensions), Morpheus™ (Molecular Dimensions), Pact Premier™ (Molecular Dimensions), LMB™ (Molecular Dimensions), Index™ (Hampton Research) and PGA™ (Molecular Dimensions). Each was monitored weekly for crystal growth using the JANSi UVEX imaging system.\nWhere required, crystals were cryoprotected with 20% glycerol or 25% ethylene glycol prior to flash freezing in liquid nitrogen. Data collection was done using the Advanced Photon Source synchrotron. Images were integrated using XDS 20220110 (37). Aimless (38) was used for scaling and merging. Phaser™ 2.8 (39) was used for molecular replacement using the design models as search models (either monomer or oligomeric complex). Models were built using Coot 0.9.8 (40) and refined with Phenix ™ refine from Phenix™ 1.20 (41) and RefMac™ (42) from CCP4 7.1 (38) suite. All structures were validated using MolProbity™ 4.5.1(43)."}, "[2]": {"target": "the molecule itself", "test": "negative stain EM, 2D class averages and 3D maps; self-association of protomers (hexamer)", "description": "(§2) Next, we selected three designs: one C15 homo-pentamer (HALC5-15_262), one C18 homo-hexamer (HALC6-18_265) and one C33 homo-trimer (HALC3-33_343) for high-resolution single particle cryoEM characterization.\n(§3) SEC fractions corresponding to the designs were concentrated in TBS prior to negative stain EM screening. Samples were then immediately diluted 5 to 150 times in TBS buffer (25 mM Tris, 100 mM NaCl, pH 8.0) depending on the concentration of the samples. A final volume of 5 μL was applied on negatively glow discharged, carbon-coated 400-mesh copper grids (01844-F, TedPella Inc.), then washed with Milli-Q Water and stained using 0.75% uranyl formate as previously described (44). Air-dried grids were then imaged on either a FEI Talos™ L120C TEM (FEI Thermo Scientific) equipped with a 4K×4K Gatan OneView™ camera at a magnification of 57,000× and pixel size of 2.5 Å. Micrographs collection was automated using EPU™ software (FEI Thermo Scientific) and were imported into CisTEM™ software (45) or cryoSPARC™ software (46, 47). CTF estimation was done with CTFFIND4 and a circular blob picker was used to select particles which were then subjected to 2D classification. Ab initio reconstruction and homogeneous refinement in Cn symmetry were used to generate 3D electron density maps. All EM maps can be found in supplementary data."}, "[3]": {"target": "the molecule itself", "test": "negative stain EM, 2D class averages and 3D maps; self-association of protomers (pentamer)", "description": "as §2, §3"}, "[4]": {"target": "the molecule itself", "test": "negative stain EM, 2D class averages and 3D maps; self-association of protomers (heptamer)", "description": "as §2, §3"}, "[5]": {"target": "the molecule itself", "test": "X-ray crystallography; self-association of protomers (homo-dimer)", "description": "as §1\nWhere required, crystals were cryoprotected with 20% glycerol or 25% ethylene glycol prior to flash freezing in liquid nitrogen. Data collection was done using the Advanced Photon Source synchrotron. Images were integrated using XDS 20220110 (37). Aimless (38) was used for scaling and merging. […]"}, "[6]": {"target": "the molecule itself", "test": "single particle cryoEM; self-association of protomers", "procedure": "The designs were relaxed into experimental cryoEM electron densities using Rosetta FastRelax and SetupForDensityScoring.\nFor some samples, multiple blots were applied in order to obtain the best particle density. All grids were blotted using a blot force of 0 and 5.5 second blot time at 100% humidity and 4° C. and plunge-frozen in liquid ethane using a Vitrobot™ Mark IV (FEI Thermo Scientific). All cryoEM grids were screened on a Glacios™ transmission electron microscope (FEI Thermo Scientific) operated at 200 kV and equipped with a Gatan K2 or K3 Summit direct detector. […] Movies were acquired in counting mode fractionated in 50 frames of 200 ms at 8.5 e-/pixel/sec for a total dose of ˜65e-/Å²."}}}
{"protein": "B1", "values": [{"measurement": "binding result", "setting": "[1]", "value": "binds"}]}
{"protein": "B2", "values": [{"measurement": "binding result", "setting": "[2]", "value": "binds"}]}
{"protein": "B3", "values": [{"measurement": "binding result", "setting": "[1]", "value": "binds"}]}
{"protein": "B4", "values": [{"measurement": "binding result", "setting": "[1]", "value": "binds"}]}
{"protein": "B5", "values": [{"measurement": "binding result", "setting": "[1]", "value": "binds"}]}
{"protein": "B6", "values": [{"measurement": "binding result", "setting": "[2]", "value": "binds"}]}
{"protein": "B7", "values": [{"measurement": "binding result", "setting": "[3]", "value": "binds"}]}
{"protein": "B8", "values": [{"measurement": "binding result", "setting": "[3]", "value": "binds"}]}
{"protein": "B9", "values": [{"measurement": "binding result", "setting": "[4]", "value": "binds"}]}
{"protein": "B10", "values": [{"measurement": "binding result", "setting": "[5]", "value": "binds"}]}
{"protein": "B11", "values": [{"measurement": "binding result", "setting": "[6]", "value": "binds"}]}
{"protein": "B12", "values": [{"measurement": "binding result", "setting": "[6]", "value": "binds"}]}
